Assay results from doi:10.1101/854133.

Target: FANCI-Ub (mono-ubiquitinated at K523);FANCD2-Ub (mono-ubiquitinated at K561) (human;human) (UniProt Q9NVI1+Q9BXW9)
Assay: EMSA
Details: nick

Sequence of FANCI-Ub (mono-ubiquitinated at K523);FANCD2-Ub (mono-ubiquitinated at K561) (human;human) (Q9NVI1 whole entry, chain 1 of 2): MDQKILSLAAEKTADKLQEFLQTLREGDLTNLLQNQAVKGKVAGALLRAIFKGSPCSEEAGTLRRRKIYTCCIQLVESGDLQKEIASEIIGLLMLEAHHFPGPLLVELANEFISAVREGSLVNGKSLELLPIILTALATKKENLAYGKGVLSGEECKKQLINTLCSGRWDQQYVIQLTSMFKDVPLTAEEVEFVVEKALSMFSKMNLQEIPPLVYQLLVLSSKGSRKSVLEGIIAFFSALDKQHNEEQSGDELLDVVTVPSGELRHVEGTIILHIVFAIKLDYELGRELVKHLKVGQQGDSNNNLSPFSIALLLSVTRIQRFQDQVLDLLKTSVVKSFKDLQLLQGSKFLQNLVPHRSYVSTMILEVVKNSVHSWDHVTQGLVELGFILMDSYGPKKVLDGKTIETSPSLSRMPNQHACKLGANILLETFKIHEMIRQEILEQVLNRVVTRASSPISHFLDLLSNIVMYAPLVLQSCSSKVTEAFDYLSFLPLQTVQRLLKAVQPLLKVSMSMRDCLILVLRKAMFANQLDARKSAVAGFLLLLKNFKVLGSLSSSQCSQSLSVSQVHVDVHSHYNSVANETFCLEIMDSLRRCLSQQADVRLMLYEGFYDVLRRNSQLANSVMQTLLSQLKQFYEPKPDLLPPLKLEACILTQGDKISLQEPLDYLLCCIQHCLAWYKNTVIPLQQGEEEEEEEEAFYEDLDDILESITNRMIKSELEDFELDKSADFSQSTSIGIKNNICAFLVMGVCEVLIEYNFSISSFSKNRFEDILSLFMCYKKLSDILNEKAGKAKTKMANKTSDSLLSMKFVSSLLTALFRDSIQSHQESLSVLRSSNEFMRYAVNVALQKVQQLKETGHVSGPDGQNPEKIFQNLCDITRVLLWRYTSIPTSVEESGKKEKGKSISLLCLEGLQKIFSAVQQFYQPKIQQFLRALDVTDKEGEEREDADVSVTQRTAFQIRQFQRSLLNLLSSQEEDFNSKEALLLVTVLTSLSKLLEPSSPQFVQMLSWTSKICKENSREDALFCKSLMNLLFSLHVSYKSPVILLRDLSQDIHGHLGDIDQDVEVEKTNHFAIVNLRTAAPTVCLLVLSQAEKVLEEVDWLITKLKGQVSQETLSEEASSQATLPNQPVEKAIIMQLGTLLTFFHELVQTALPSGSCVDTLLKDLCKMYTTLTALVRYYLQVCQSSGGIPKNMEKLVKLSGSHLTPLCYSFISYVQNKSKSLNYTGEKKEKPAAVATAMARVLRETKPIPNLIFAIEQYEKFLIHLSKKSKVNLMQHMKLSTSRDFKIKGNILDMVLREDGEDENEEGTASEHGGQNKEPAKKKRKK
Sequence of FANCI-Ub (mono-ubiquitinated at K523);FANCD2-Ub (mono-ubiquitinated at K561) (human;human) (Q9BXW9 whole entry, chain 2 of 2): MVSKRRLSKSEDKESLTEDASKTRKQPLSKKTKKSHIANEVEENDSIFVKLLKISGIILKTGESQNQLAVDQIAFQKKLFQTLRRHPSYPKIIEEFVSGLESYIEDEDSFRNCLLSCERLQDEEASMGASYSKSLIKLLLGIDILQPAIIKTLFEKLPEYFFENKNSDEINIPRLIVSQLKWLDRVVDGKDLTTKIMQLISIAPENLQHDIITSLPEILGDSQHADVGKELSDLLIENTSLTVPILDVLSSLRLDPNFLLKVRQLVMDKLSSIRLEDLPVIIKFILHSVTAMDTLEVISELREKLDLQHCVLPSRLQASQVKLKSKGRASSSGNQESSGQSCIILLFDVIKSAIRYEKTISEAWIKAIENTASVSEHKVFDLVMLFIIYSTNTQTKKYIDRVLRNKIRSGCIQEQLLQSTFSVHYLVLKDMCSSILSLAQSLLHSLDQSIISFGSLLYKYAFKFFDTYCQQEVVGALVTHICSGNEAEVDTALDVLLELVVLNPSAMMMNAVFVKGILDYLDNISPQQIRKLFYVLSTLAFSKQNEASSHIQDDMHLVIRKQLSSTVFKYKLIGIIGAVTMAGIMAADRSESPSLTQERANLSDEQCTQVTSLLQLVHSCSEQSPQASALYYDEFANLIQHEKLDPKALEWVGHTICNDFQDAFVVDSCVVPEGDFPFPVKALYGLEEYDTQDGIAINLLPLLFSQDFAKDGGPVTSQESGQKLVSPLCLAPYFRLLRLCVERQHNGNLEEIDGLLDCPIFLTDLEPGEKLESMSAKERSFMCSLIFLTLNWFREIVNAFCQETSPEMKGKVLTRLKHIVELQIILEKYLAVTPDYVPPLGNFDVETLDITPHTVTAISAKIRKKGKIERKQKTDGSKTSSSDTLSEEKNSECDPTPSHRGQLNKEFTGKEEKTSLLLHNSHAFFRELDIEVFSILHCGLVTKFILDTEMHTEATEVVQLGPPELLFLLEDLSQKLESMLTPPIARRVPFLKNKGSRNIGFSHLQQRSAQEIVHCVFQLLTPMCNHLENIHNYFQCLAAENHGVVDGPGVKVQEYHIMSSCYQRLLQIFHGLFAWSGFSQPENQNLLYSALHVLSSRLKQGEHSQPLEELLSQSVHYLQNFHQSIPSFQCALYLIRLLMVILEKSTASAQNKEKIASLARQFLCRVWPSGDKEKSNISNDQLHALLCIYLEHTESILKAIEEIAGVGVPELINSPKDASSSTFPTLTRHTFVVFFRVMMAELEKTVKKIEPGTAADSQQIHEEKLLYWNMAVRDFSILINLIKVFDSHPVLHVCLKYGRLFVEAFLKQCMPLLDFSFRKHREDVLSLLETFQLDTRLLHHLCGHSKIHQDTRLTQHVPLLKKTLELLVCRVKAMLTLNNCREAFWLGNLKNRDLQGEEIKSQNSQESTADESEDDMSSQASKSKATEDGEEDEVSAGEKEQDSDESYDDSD

In the case of nicked DNA, EMSA, the Kd is reported as 0.02 µM.
